± gives the uncertainty stated by the source.
Assay: protein stability index of a GFP-peptide fusion (yeast GPS) (PSI 1-4); higher = more stable; sorted into four equal gates, so the index is relative within each strain
Outline: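 Yeast carrying a pooled library were grown to mid-log phase in leucine-free medium. Each library plasmid expresses Cherry and has a tiled 17-residue yeast protein peptide fused downstream of GFP. Cells were sorted into four equal gates by GFP/Cherry ratio, and plasmids from each gate were PCR-amplified, Illumina-sequenced and assigned to strains by barcode. Summing, across gates, the read frequency times the gate number gave each peptide's protein stability index.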

Sequence | protein stability index (doa10∆) | protein stability index (pdr5∆) | protein stability index (san1∆) | protein stability index (ubr1∆)
KGYLQRGDDGESYAYLA [CDC53] | 3.17 ± 0.057 | 3.17 ± 0.055 | 3.21 ± 0.033 | 3.25 ± 0.044
TEENIKGETNSEISIID [RRP45] | 2.96 ± 0.07 | 3.16 ± 0.064 | 3.3 ± 0.055 | 3.22 ± 0.053
QLNLNNLTPANILNMSM [PGD1] | 3.04 ± 0.1 | 3.19 ± 0.07 | 2.75 ± 0.067 | 3.02 ± 0.045
NILWRIADKTTYDKETI [SIR4] | 3.2 ± 0.12 | 3.16 ± 0.084 | 2.98 ± 0.1 | 3.17 ± 0.052
VRTNTLTKAAIVQIDAT [RPS8A] | 2.233 ± 0.022 | 2.54 ± 0.023 | 2.37 ± 0.026 | 2.297 ± 0.019
RSTDEFNGAQLKAVTVE [RPT5] | 2.86 ± 0.29 | 3.71 ± 0.24 | – | 2.06 ± 0.19
LLFWTDPRNLVNQTGST [YCG1] | 2.41 ± 0.065 | 2.66 ± 0.064 | 2.83 ± 0.055 | 2.81 ± 0.038
ESGEFDFDLFKEVLPDL [YJL039C/NUP192] | 3.43 ± 0.13 | 3.26 ± 0.092 | 3.17 ± 0.063 | 3.23 ± 0.079
AAPAGVAGGVAGGEAGE [RPP1A] | 1.91 ± 0.16 | 1.8 ± 0.18 | 1.66 ± 0.28 | –
EDEFIVQHDQILVMETS [SWP82] | 2.95 ± 0.069 | 2.54 ± 0.063 | 2.33 ± 0.082 | 2.98 ± 0.048
APGASVPATAAPGTEAG [SWI1] | 2.99 ± 0.094 | 3.05 ± 0.075 | 2.92 ± 0.079 | 3.18 ± 0.07
LMEASDAFRVHICGICG [RPB2] | 2.08 ± 0.062 | 1.83 ± 0.098 | 2.23 ± 0.11 | 2.5 ± 0.072
LETEQLSSELDSNKTLL [SMC2] | 3.35 ± 0.071 | 3.32 ± 0.082 | 3.26 ± 0.05 | 3.31 ± 0.049
TYQTERFTKFSDTLKEF [YDL116W/NUP84] | 2.38 ± 0.047 | 2.31 ± 0.056 | 1.73 ± 0.12 | 1.97 ± 0.046
HMAKGLYYGSYRSPRVL [COB] | 1.6 ± 0.15 | 1.1 ± 0.12 | 1.3 ± 0.13 | –
KLKQGQKLFVQVSNFAP [GAL11] | 2.74 ± 0.063 | 2.81 ± 0.057 | 3.01 ± 0.051 | 2.84 ± 0.05
LLGKDNEDDALIYGISD [AAR2] | 3.22 ± 0.12 | 3.14 ± 0.14 | 3.11 ± 0.1 | 2.7 ± 0.14
VPPPPVRPSISFNESQR [RPO21] | 2.47 ± 0.037 | 2.78 ± 0.036 | 2.62 ± 0.039 | 2.45 ± 0.034
DFSLRYISNLLYGVTIC [REC8] | 2.13 ± 0.039 | 1.71 ± 0.041 | 1.83 ± 0.074 | 1.5 ± 0.027
GASTVMKTKTINAQGEE [PRP8] | 3.31 ± 0.11 | 3.06 ± 0.15 | 3.2 ± 0.083 | 3.07 ± 0.07
PENTAMFNPLHESYCLP [YMR129W/POM152] | 2.44 ± 0.043 | 2.66 ± 0.042 | 2.66 ± 0.037 | 2.6 ± 0.03
VISTIENVLFYIGRVNK [COB] | 1.92 ± 0.069 | 1.89 ± 0.052 | 2.43 ± 0.058 | 2.62 ± 0.065
AQGDPNLEPLIAKLVAV [NUT1] | – | 1.87 ± 0.13 | 3.08 ± 0.19 | 1.07 ± 0.088
LSEDELRELDVELIESK [SMC4] | 3.33 ± 0.18 | 3.72 ± 0.24 | 3.4 ± 0.11 | 3.23 ± 0.073
DDIVSHQGTPLGSHSSS [REC8] | 3.2 ± 0.15 | 3.37 ± 0.12 | 3.04 ± 0.16 | 3.3 ± 0.095
IHVLEQDGGIMGSLING [SKI6] | 3.45 ± 0.09 | 3.1 ± 0.1 | 3.36 ± 0.082 | 3.18 ± 0.066

From the supplement of paper PMC9732359
